In patent publication US20210238296A1 (Genmab, published 2021):

T1: diFCGR2AH-HisBAP (dimeric extracellular domain of FcγRIIA allotype 131H) (Homo sapiens (Human), UniProt P12318 34-215, C-terminally biotinylated)
T1 construct: dimeric, His-tagged, C-terminally biotinylated ECD; also called IIA-131H
T1 sequence: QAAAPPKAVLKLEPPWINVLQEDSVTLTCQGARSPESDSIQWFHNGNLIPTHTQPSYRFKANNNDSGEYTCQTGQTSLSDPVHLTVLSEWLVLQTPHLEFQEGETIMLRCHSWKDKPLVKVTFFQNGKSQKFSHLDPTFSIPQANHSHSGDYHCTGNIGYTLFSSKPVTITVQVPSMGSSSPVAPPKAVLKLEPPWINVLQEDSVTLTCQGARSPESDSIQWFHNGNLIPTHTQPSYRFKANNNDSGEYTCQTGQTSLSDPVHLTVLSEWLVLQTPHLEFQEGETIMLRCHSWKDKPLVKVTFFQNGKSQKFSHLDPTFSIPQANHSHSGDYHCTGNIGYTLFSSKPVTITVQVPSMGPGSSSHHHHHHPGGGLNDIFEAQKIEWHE

T2: diFCGR2AR-HisBAP (dimeric extracellular domain of FcγRIIA allotype 131R) (Homo sapiens (Human), UniProt P12318 36-215, C-terminally biotinylated)
T2 construct: dimeric, His-tagged, C-terminally biotinylated ECD; also called IIA-131R
T2 chain: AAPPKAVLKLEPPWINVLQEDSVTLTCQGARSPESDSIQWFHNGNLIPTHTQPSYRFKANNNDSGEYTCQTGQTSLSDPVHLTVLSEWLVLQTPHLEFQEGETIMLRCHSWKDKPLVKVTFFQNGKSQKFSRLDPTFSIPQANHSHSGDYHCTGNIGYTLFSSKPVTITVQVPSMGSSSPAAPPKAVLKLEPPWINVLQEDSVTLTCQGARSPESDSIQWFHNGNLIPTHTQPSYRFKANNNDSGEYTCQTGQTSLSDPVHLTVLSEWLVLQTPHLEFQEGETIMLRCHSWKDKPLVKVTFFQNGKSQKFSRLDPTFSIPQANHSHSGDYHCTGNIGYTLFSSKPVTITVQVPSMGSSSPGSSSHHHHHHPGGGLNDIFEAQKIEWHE

T3: diFCGR2B-HisBAP (dimeric extracellular domain of FcγRIIB) (Homo sapiens (Human), UniProt P31994 44-223, C-terminally biotinylated)
T3 construct: dimeric, His-tagged, C-terminally biotinylated ECD
T3 sequence: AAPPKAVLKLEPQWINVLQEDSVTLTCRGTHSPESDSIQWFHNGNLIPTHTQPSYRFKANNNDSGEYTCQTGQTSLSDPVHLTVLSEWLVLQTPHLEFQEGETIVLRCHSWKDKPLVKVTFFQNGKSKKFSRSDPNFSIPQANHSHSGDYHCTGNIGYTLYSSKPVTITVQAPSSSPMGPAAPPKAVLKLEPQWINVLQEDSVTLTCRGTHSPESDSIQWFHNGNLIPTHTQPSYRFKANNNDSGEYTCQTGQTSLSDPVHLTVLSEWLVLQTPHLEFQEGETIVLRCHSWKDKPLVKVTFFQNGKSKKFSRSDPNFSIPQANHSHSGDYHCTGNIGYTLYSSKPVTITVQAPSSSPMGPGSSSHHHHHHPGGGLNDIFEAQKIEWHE


Legend:
[1] = target: FCGR1AECDHis (monomeric extracellular domain of FcγRIA) (Homo sapiens (Human), UniProt P12314 16-292); test: ELISA, coated FCGR1AECD-His, 20 ug/mL antibody
Chain of FCGR1AECDHis (monomeric extracellular domain of FcγRIA) (P12314 other isoform, or with tags, fused parts or gaps limits assumed): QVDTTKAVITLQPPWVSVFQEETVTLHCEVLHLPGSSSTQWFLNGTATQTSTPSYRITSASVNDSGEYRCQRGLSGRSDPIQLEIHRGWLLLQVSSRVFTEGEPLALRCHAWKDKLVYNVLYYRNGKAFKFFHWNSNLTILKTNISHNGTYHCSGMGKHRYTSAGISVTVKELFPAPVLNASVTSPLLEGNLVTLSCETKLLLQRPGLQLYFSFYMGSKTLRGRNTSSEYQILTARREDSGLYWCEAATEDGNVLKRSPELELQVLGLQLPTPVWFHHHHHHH

[2] = target: T1, diFCGR2AH-HisBAP (dimeric extracellular …); test: ELISA, captured antibody, dimeric biotinylated FcγR ECD
[3] = target: T2, diFCGR2AR-HisBAP (dimeric extracellular …); test: as above
[4] = target: T3, diFCGR2B-HisBAP (dimeric extracellular …); test: as above
[5] = target: T4, diFCGR3AF-HisBAP (dimeric extracellular domain of FcγRIIIA allotype 158F) (C-terminally biotinylated); test: as above
T4 construct: dimeric, His-tagged, C-terminally biotinylated ECD; also called IIIA-158F

[6] = target: T5, diFCGR3AV-HisBAP (dimeric extracellular domain of FcγRIIIA allotype 158V) (C-terminally biotinylated); test: as above
T5 construct: dimeric, His-tagged, C-terminally biotinylated ECD; also called IIIA-158V

[7] = target: T1, diFCGR2AH-HisBAP (dimeric extracellular …); test: FcγR ELISA, 20 ug/mL antibody
[8] = target: T2, diFCGR2AR-HisBAP (dimeric extracellular …); test: FcγR ELISA, 20 ug/mL antibody
[9] = target: T3, diFCGR2B-HisBAP (dimeric extracellular …); test: FcγR ELISA, 20 ug/mL antibody
[10] = target: T1, diFCGR2AH-HisBAP (dimeric extracellular …); test: ELISA, captured antibody 20 ug/mL, dimeric biotinylated FcγR ECD
[11] = target: T2, diFCGR2AR-HisBAP (dimeric extracellular …); test: as above
[12] = target: T3, diFCGR2B-HisBAP (dimeric extracellular …); test: as above
C1q = target: T6, C1q (human, UniProt P02745 23-245; P02746 28-253; P02747 29-245); test: flow cytometry of C1q on antibody-opsonized Wien 133 cells, 20% NHS on ice
T6 construct: native C1q in 20% normal human serum, detected with rabbit anti-human C1q-FITC on antibody-opsonized Wien 133 cells; also called human C1q from normal human serum
T6 sequence (P02745 23-245 limits assumed, chain 1 of 3): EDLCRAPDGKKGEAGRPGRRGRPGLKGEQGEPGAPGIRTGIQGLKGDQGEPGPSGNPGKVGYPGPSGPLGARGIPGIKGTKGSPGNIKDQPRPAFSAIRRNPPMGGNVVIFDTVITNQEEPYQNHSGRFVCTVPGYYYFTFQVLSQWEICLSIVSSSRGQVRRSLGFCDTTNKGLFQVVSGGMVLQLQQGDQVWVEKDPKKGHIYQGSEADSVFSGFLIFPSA
T6 sequence (P02746 28-253 limits assumed, chain 2 of 3): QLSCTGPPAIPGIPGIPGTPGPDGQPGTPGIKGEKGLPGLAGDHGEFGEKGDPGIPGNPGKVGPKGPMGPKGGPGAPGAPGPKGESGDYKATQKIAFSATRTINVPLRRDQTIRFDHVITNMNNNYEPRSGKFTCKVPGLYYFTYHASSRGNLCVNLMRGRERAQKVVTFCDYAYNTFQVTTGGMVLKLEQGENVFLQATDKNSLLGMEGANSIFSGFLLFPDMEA
T6 sequence (P02747 29-245 limits assumed, chain 3 of 3): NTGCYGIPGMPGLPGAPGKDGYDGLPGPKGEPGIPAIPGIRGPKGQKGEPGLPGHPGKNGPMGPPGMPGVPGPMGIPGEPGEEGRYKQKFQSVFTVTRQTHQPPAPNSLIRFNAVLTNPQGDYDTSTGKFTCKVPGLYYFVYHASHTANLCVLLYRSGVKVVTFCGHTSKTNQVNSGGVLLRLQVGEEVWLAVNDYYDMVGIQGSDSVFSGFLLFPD

Row | Binder | binding result [1] | binding result [2] | binding result [3] | binding result [4] | binding result [5] | binding result [6] | other results
1 | IgG1-CAMPATH-1H-E430G-K439E-G236R (antibody, also called IgG1-CAMPATH-1H-G236R-E430G-K439E; IgG1-CAMPATH-E430G-K439E-G236R) heavy: QVQLQESGPGLVRPSQTLSLTCTVSGFTFTDFYMNWVRQPPGRGLEWIGFIRDKAKGYTTEYNPSVKGRVTMLVDTSKNQFSLRLSSVTAADTAVYYCAREGHTAAPFDYWGQGSLVTVSSASTKGPSVFPLAPSSKSTSGGTAALGCLVKDYFPEPVTVSWNSGALTSGVHTFPAVLQSSGLYSLSSVVTVPSSSLGTQTYICNVNHKPSNTKVDKRVEPKSCDKTHTCPPCPAPELLRGPSVFLFPPKPKDTLMISRTPEVTCVVVDVSHEDPEVKFNWYVDGVEVHNAKTKPREEQYNSTYRVVSVLTVLHQDWLNGKEYKCKVSNKALPAPIEKTISKAKGQPREPQVYTLPPSREEMTKNQVSLTCLVKGFYPSDIAVEWESNGQPENNYKTTPPVLDSDGSFFLYSKLTVDKSRWQQGNVFSCSVMHGALHNHYTQESLSLSPGK light: not shown | binds | no binding (tested: 20 µg/mL) | no binding (tested: 20 µg/mL) | no binding (tested: 20 µg/mL) | no binding (tested: 20 µg/mL) | no binding (tested: 20 µg/mL) | 
2 | IgG1-CAMPATH-1H-E430G-K439E-G237T (antibody, also called IgG1-CD52-Campath-G237T-E430G-K439E) heavy: QVQLQESGPGLVRPSQTLSLTCTVSGFTFTDFYMNWVRQPPGRGLEWIGFIRDKAKGYTTEYNPSVKGRVTMLVDTSKNQFSLRLSSVTAADTAVYYCAREGHTAAPFDYWGQGSLVTVSSASTKGPSVFPLAPSSKSTSGGTAALGCLVKDYFPEPVTVSWNSGALTSGVHTFPAVLQSSGLYSLSSVVTVPSSSLGTQTYICNVNHKPSNTKVDKRVEPKSCDKTHTCPPCPAPELLGTPSVFLFPPKPKDTLMISRTPEVTCVVVDVSHEDPEVKFNWYVDGVEVHNAKTKPREEQYNSTYRVVSVLTVLHQDWLNGKEYKCKVSNKALPAPIEKTISKAKGQPREPQVYTLPPSREEMTKNQVSLTCLVKGFYPSDIAVEWESNGQPENNYKTTPPVLDSDGSFFLYSKLTVDKSRWQQGNVFSCSVMHGALHNHYTQESLSLSPGK light: not shown | binds | no binding (tested: 20 µg/mL) | no binding (tested: 20 µg/mL) | no binding (tested: 20 µg/mL) | no binding (tested: 20 µg/mL) | no binding (tested: 20 µg/mL) | 
3 | IgG1-CAMPATH-1H-E430G-K439E-G237Q (antibody, also called IgG1-CD52-Campath-G237Q-E430G-K439E) heavy: QVQLQESGPGLVRPSQTLSLTCTVSGFTFTDFYMNWVRQPPGRGLEWIGFIRDKAKGYTTEYNPSVKGRVTMLVDTSKNQFSLRLSSVTAADTAVYYCAREGHTAAPFDYWGQGSLVTVSSASTKGPSVFPLAPSSKSTSGGTAALGCLVKDYFPEPVTVSWNSGALTSGVHTFPAVLQSSGLYSLSSVVTVPSSSLGTQTYICNVNHKPSNTKVDKRVEPKSCDKTHTCPPCPAPELLGQPSVFLFPPKPKDTLMISRTPEVTCVVVDVSHEDPEVKFNWYVDGVEVHNAKTKPREEQYNSTYRVVSVLTVLHQDWLNGKEYKCKVSNKALPAPIEKTISKAKGQPREPQVYTLPPSREEMTKNQVSLTCLVKGFYPSDIAVEWESNGQPENNYKTTPPVLDSDGSFFLYSKLTVDKSRWQQGNVFSCSVMHGALHNHYTQESLSLSPGK light: not shown | binds |  |  |  |  |  | 
4 | IgG1-CAMPATH-1H-E430G-K439E-G237R (antibody, also called IgG1-CD52-Campath-G237R-E430G-K439E) heavy: QVQLQESGPGLVRPSQTLSLTCTVSGFTFTDFYMNWVRQPPGRGLEWIGFIRDKAKGYTTEYNPSVKGRVTMLVDTSKNQFSLRLSSVTAADTAVYYCAREGHTAAPFDYWGQGSLVTVSSASTKGPSVFPLAPSSKSTSGGTAALGCLVKDYFPEPVTVSWNSGALTSGVHTFPAVLQSSGLYSLSSVVTVPSSSLGTQTYICNVNHKPSNTKVDKRVEPKSCDKTHTCPPCPAPELLGRPSVFLFPPKPKDTLMISRTPEVTCVVVDVSHEDPEVKFNWYVDGVEVHNAKTKPREEQYNSTYRVVSVLTVLHQDWLNGKEYKCKVSNKALPAPIEKTISKAKGQPREPQVYTLPPSREEMTKNQVSLTCLVKGFYPSDIAVEWESNGQPENNYKTTPPVLDSDGSFFLYSKLTVDKSRWQQGNVFSCSVMHGALHNHYTQESLSLSPGK light: not shown | binds |  |  |  |  |  | 
5 | IgG1-CAMPATH-1H-E430G-K439E-K322A (antibody, also called IgG1-CAMPATH-1H-K322A-E430G-K439E) heavy: QVQLQESGPGLVRPSQTLSLTCTVSGFTFTDFYMNWVRQPPGRGLEWIGFIRDKAKGYTTEYNPSVKGRVTMLVDTSKNQFSLRLSSVTAADTAVYYCAREGHTAAPFDYWGQGSLVTVSSASTKGPSVFPLAPSSKSTSGGTAALGCLVKDYFPEPVTVSWNSGALTSGVHTFPAVLQSSGLYSLSSVVTVPSSSLGTQTYICNVNHKPSNTKVDKRVEPKSCDKTHTCPPCPAPELLGGPSVFLFPPKPKDTLMISRTPEVTCVVVDVSHEDPEVKFNWYVDGVEVHNAKTKPREEQYNSTYRVVSVLTVLHQDWLNGKEYKCAVSNKALPAPIEKTISKAKGQPREPQVYTLPPSREEMTKNQVSLTCLVKGFYPSDIAVEWESNGQPENNYKTTPPVLDSDGSFFLYSKLTVDKSRWQQGNVFSCSVMHGALHNHYTQESLSLSPGK light: not shown | binds |  |  |  |  |  | binding result [7]: binds; binding result [8]: binds; binding result [9]: binds
6 | IgG1-11B8-E430G-S440K-K326A (antibody, also called IgG1-11B8-K326A-E430G-S440K) heavy: EVQLVQSGGGLVHPGGSLRLSCTGSGFTFSYHAMHWVRQAPGKGLEWVSIIGTGGVTYYADSVKGRFTISRDNVKNSLYLQMNSLRAEDMAVYYCARDYYGAGSFYDGLYGMDVWGQGTTVTVSSASTKGPSVFPLAPSSKSTSGGTAALGCLVKDYFPEPVTVSWNSGALTSGVHTFPAVLQSSGLYSLSSVVTVPSSSLGTQTYICNVNHKPSNTKVDKRVEPKSCDKTHTCPPCPAPELLGGPSVFLFPPKPKDTLMISRTPEVTCVVVDVSHEDPEVKFNWYVDGVEVHNAKTKPREEQYNSTYRVVSVLTVLHQDWLNGKEYKCKVSNAALPAPIEKTISKAKGQPREPQVYTLPPSREEMTKNQVSLTCLVKGFYPSDIAVEWESNGQPENNYKTTPPVLDSDGSFFLYSKLTVDKSRWQQGNVFSCSVMHGALHNHYTQKKLSLSPGK light: not shown |  |  |  |  |  |  | binding result [10]: binds; binding result [11]: binds; binding result [12]: binds; binding result (C1q): binds
